The text below walks through data of PMC7050208.

The data set concerns N[C@@H](CCOP(=O)(O)O)C(=O)O. Nature of the data set: coupled MESG/PNP phosphate release, A360. Type of data set: biochemical, Bacillus spizizenii. The settings on record: 50 mM HEPES-NaOH pH 7.5, 100 μM PLP.

For the substance BsThrC (Bacillus spizizenii), under “0.1 μM enzyme”, the Km (in general, the concentration of substrate that gives half-maximal velocity) was found to be 329 µM and the turnover number (kcat) – broadly, the maximal rate divided by the concentration of active sites – worked out at 1.74 s⁻¹.
For “RhiB (Bacillus spizizenii ATCC 6633 = JCM 2499)”, under “0.25 μM enzyme”, the Km was determined as 824 µM and the kcat was found to be 0.60 s⁻¹.
